Experimental data as given in paper PMC9160799, “PET Imaging of Acidic Tumor Environment With ^89Zr-labeled pHLIP Probes” (Frontiers in Oncology, 2022).
“And” between values parts separate entries of the source, which are not always exact repeats. Equal values may be shown once. “Also recorded” adds a separate entry of the source. Square brackets hold non-standard residues; d marks the D form. Peptide text beside a SMILES is read from it. * marks the point of attachment. X1 = CC(=O)N(O)CCCCCNC(=O)CCC(=O)N(O)CCCCCNC(=O)CCC(=O)N(O)CCCCCNC(=O)CCC(=O)N(O)CCCCCNC(=S)Nc1ccc(NC(=S)*)cc1

Assays:
[1] = Post-mortem biodistribution, RM-1 tumor model; format: in vivo, male athymic nude mice; details: male, athymic nude, mouse, in vivo, iv, 1.2 nmol, total radioactivity
Method: (§1) The media were provided by the MSK Media Preparation Core. […] Another aliquot was diluted with the medium so that 50 µL contained 1×10^6 cells.
(§2) The imaging and biodistribution studies were performed with male (RM-1 model) and female (4T1 model) athymic nude mice and the kidney-blocking experiments were performed with female SCID mice received from Charles River Laboratories (Stone Ridge, NY). After arrival, the mice were kept in the MSK vivarium for one week before any experimental handling was performed. The animals were allowed free access to water and food, and all animal care and experimental procedures were approved by the Institutional Animal Care and Use Committee (IACUC). For the subcutaneous allografts, a 1-to-1 ratio of Corning Matrigel Matrix and the cell solution was prepared and stored on ice for the injections. Each mouse received a subcutaneous injection of 100 µL (50 µL cell solution, viability > 90%, + 50 µL Matrigel) into the flank on the level of the right shoulder. The injections were performed under anesthesia (2% isoflurane, Baxter Healthcare, Deerfield, IL, USA).
(§3) The mice were intravenously injected (tail vein) with the radiolabeled pHLIP conjugates (1.2 nmol, 7.4 MBq/200 µCi, 100 µL, in sterile filtered PBS). The activity of the syringe prior to injection and after injection was used to determine the percent of injectate administered.
(§4) For the biodistribution studies the tumor-bearing mice were randomized before the injections. Only mice with suitable tumors (150–300 mm^3) were utilized. An exception was made for the 120-hour timepoint, for which only mice with smaller tumors (150 mm^3) were selected. The mice were grouped in cohorts of four. At the respective timepoint, the mice were euthanized (by CO2 asphyxiation, followed by cervical dislocation) and their blood was collected by cardiac puncture as a terminal procedure, followed by quick removal of the tumors. After this, the other organs/samples were collected. […] The exact activities of all samples of one mouse were determined by an Capintec® CRC-55tR dose calibrator. These decay-corrected measurements were used to determine a calibration factor and calibrate all counts to the corresponding activities. Activity concentrations were calculated as percentage injected dose per tissue weight (%ID/g wet tissue). All data was processed and visualized using Origin 8.5.

RM-1 tumor allografts = test: Post-mortem biodistribution, RM-1 tumor model; format: in vivo, male athymic nude mice; details: mouse, in vivo, iv, 1.2 nmol, 48 h
Method: as §1, §2, §3, §4

[2] = system: kidney uptake of [89Zr]Zr-DFOsqa-Lys-Var3; test: Kidney-blocking study (PET imaging); format: in vivo, healthy female SCID mice; details: drug IV 30 min before 7.4 MBq [89Zr]Zr-DFOsqa-Lys-Var3 (1.2 nmol); two doses per drug, n=2 each; PET 24 h p.i. vs control mice
Method: as §2, with “USA). Palpable tumors of similar size (100–300 mm^3) developed 5–8 days after grafting.” for “USA).”
PET images were obtained at the respective timepoints with the mice under anesthesia (2% isoflurane) on a microPET Focus 120 (Concorde Microsystems) or an Inveon PET-CT (Siemens) rodent scanner. All images were analyzed using the Medical Imaging Data Examiner Amide (version 0.9.0) or the Inveon reconstruction software suite. The counting rates in the reconstructed images were converted to percent of injected dose per weight (%ID/g) by applying a system-specific calibration factor. At the final timepoint, the remaining mice were euthanized (by CO2 asphyxiation, followed by cervical dislocation) and their tumors were resected for histological analysis.
Additional experiments were performed to investigate the influence of various kidney-uptake blockers and diuretics. Healthy female SCID mice received a “blocking agent” 30 minutes prior to the injection of [^89Zr]Zr-DFOsqa-Lys-Var3 (7.4 MBq/200 µCi, 1.2 nmol). […] The experimental set-up can be found in Table S6 .
Table S6. Summary of the kidney-blocking study. Healthy female SCID mice (2 mice per experiment/ dosage + 2 control mice without treatment, total of 22 mice) received a blocking agent intravenously 30 minutes prior to the injection of 7.4 MBq/200 µCi [89Zr]Zr-DFOsqa-Lys-Var3 (1.2 nmol pHLIP).
The drug dose was calculated as weight of drug (mg) per weight of mouse (kg). A potential kidney […]
calibrated images to the control mice (24 hours post injection). No drug led to a significant reduction […]
drug (IV 30 min before dose [mg/kg] effect on kidney mechanism of action [89Zr]Zr-pHLIP) (n=2) uptake […]
and water from the body; acts as a diuretic […]
organic anion transporter; blocks the uptake of organic anions […]
tubule via inhibition of the Na/Cl symporter; acts as a diuretic […]
increased – serum levels decreased

[3] = Tryptophan fluorescence spectra of pHLIP agents in states I, II, III; format: physicochemical; details: for λmax of tryptophan fluorescence, state I: in solution; for λmax of tryptophan fluorescence, state I / λmax of tryptophan fluorescence, state II: pH 8, 25.0°C; for λmax of tryptophan fluorescence, state III / λmax of tryptophan fluorescence, state II: with POPC liposomes; for λmax of tryptophan fluorescence, state III: pH 4, 25.0°C
Method: (§5) The interaction of the pHLIP agents with liposomes was investigated by recording the tryptophan fluorescence and circular dichroism (CD) spectra by using a PC1 spectrofluorometer (ISS, Inc) and an MOS-450 spectrometer (Biologic, Inc), respectively, with temperature control set to 25.0°C. Liposomes, consisting of large unilamellar vesicles, were prepared by extrusion. POPC (1-palmitoyl-2-oleoyl-sn-glycero-3-phosphocholine) (Avanti Polar Lipids, Inc.) in chloroform was desolvated on a rotary evaporator and dried under vacuum for several hours. The phospholipid film was rehydrated in 10 mM phosphate buffer, pH 8.0, vortexed, and passed 21 times through the extruder (50 nm membrane).
(§6) Using an excitation wavelength of 295 nm, tryptophan fluorescence spectra were recorded from 310–400 nm. CD spectra were recorded from 190–260 nm with 1-nm steps. The concentration of the peptide and the POPC liposomes varied in different experiments: 5–15 μM of pHLIP agents and 1 mM of POPC liposomes.
The pH-dependent insertion of the peptides into the lipid bilayer of the POPC liposomes was studied by monitoring either the changes in tryptophan fluorescence spectra or changes in the molar ellipticity at 222 nm as a function of the pH value. After the addition of aliquots of HCl, the pH values of the solutions containing peptide and POPC liposomes were measured using an Orion PerHecT ROSS Combination pH Micro Electrode and an Orion Dual Star pH and ISE Benchtop Meter. Fluorescence spectra were analyzed using the Protein Fluorescence and Structural Tool Kit (PFAST) ([41]) to determine the positions of spectral maxima (λ max ). The λ max and millidegree data were normalized to 0–1 and were plotted as a function of pH. The pH-dependence was fit with the Henderson-Hasselbach equation to determine the cooperativity (n) and the mid-point (pK) of transition: […]

[4] = pH-dependent insertion into lipid bilayer of POPC liposomes (Trp fluorescence and CD); format: physicochemical; details: with Zr, pH drop 8 to 3, Henderson-Hasselbalch fit
Method: as §5, §6
The pH-dependent insertion of the peptides into the lipid bilayer of the POPC liposomes was studied by monitoring either the changes in tryptophan fluorescence spectra or changes in the molar ellipticity at 222 nm as a function of the pH value. After the addition of aliquots of HCl, the pH values of the solutions containing peptide and POPC liposomes were measured using an Orion PerHecT ROSS Combination pH Micro Electrode and an Orion Dual Star pH and ISE Benchtop Meter. Fluorescence spectra were analyzed using the Protein Fluorescence and Structural Tool Kit (PFAST) ([41]) to determine the positions of spectral maxima (λ max ). The λ max and millidegree data were normalized to 0–1 and were plotted as a function of pH. The pH-dependence was fit with the Henderson-Hasselbach equation to determine the cooperativity (n) and the mid-point (pK) of transition:
Normalized pH dependence=1/1+10^n(pH−pK)

[5] = change of Trp fluorescence maximum

CC(=O)N[C@H](C)C(=O)N[C@H](CCCCNC(=S)Nc1ccc(NC(=S)NCCCCCN(O)C(=O)CCC(=O)NCCCCCN(O)C(=O)CCC(=O)NCCCCCN(O)C(C)=O)cc1)C(=O)N[C@H](CC(=O)O)C(=O)N[C@H](CC(=O)O)C(=O)N[C@H](CCC(N)=O)C(=O)N[C@H](CC(N)=O)C(=O)N1CCC[C@@H]1C(=O)N[C@H](Cc1c[nH]c2ccccc12)C(=O)N[C@H](CCCNC(=N)N)C(=O)N[C@H](C)C(=O)N[C@H](Cc1ccc(O)cc1)C(=O)N[C@H](CC(C)C)C(=O)N[C@H](CC(=O)O)C(=O)N[C@H](CC(C)C)C(=O)N[C@H](CC(C)C)C(=O)N[C@H](Cc1ccccc1)C(=O)N1CCC[C@@H]1C(=O)N[C@@H](C(=O)N[C@H](CC(=O)O)C(=O)N[C@@H](C(=O)N[C@H](CC(C)C)C(=O)N[C@H](CC(C)C)C(=O)N[C@H](CC(C)C)C(=O)N[C@H](CC(=O)O)C(=O)N[C@H](CC(C)C)C(=O)N[C@H](CC(C)C)C(=O)N[C@H](Cc1c[nH]c2ccccc12)C(=O)N[C@H](C)C(=O)O)[C@H](C)O)[C@H](C)O (89Zr complex, metal not drawn) [DFO-Lys-Var3]
tissue uptake at 48 h ([1]; Blood uptake): 0.5 ± 0.1 %ID/g
tissue uptake at 48 h ([1]; Brain uptake): 0.06 ± 0.01 %ID/g
tissue uptake at 48 h ([1]; Heart uptake): 1.3 ± 0.03 %ID/g
tissue uptake at 48 h ([1]; Kidneys uptake): 27.9 ± 3.6 %ID/g
tissue uptake at 48 h ([1]; Liver uptake): 8.7 ± 0.8 %ID/g
tissue uptake at 48 h ([1]; Lungs uptake): 2 ± 0.6 %ID/g
tissue uptake at 48 h ([1]; Muscle uptake): 0.5 ± 0.1 %ID/g
tissue uptake at 48 h ([1]; Pancreas uptake): 1 ± 0.2 %ID/g
tissue uptake at 48 h ([1]; Skin uptake): 1.7 ± 0.3 %ID/g
tissue uptake at 48 h ([1]; Spleen uptake): 7.2 ± 0.7 %ID/g
tissue uptake at 48 h ([1]; Tibia uptake): 1.4 ± 0.2 %ID/g
Tumor uptake (RM-1 tumor allografts): 6.9 ± 1.9 %ID/g

CCCN(CCC)S(=O)(=O)c1ccc(C(=O)O)cc1 [probenecid]
effect on kidney uptake [2]: not significant; also recorded: none of these drugs led to a significant reduction of kidney uptake

CC(=O)N[C@H](C)C(=O)N[C@H](CCCCNC(=S)Nc1ccc(NC(=S)NCCCCCN(O)C(=O)CCC(=O)NCCCCCN(O)C(=O)CCC(=O)NCCCCCN(O)C(=O)CCC(=O)NCCCCCN(O)C(C)=O)cc1)C(=O)N[C@H](CC(=O)O)C(=O)N[C@H](CC(=O)O)C(=O)N[C@H](CCC(N)=O)C(=O)N[C@H](CC(N)=O)C(=O)N1CCC[C@@H]1C(=O)N[C@H](Cc1c[nH]c2ccccc12)C(=O)N[C@H](CCCNC(=N)N)C(=O)N[C@H](C)C(=O)N[C@H](Cc1ccc(O)cc1)C(=O)N[C@H](CC(C)C)C(=O)N[C@H](CC(=O)O)C(=O)N[C@H](CC(C)C)C(=O)N[C@H](CC(C)C)C(=O)N[C@H](Cc1ccccc1)C(=O)N1CCC[C@@H]1C(=O)N[C@@H](C(=O)N[C@H](CC(=O)O)C(=O)N[C@@H](C(=O)N[C@H](CC(C)C)C(=O)N[C@H](CC(C)C)C(=O)N[C@H](CC(C)C)C(=O)N[C@H](CC(=O)O)C(=O)N[C@H](CC(C)C)C(=O)N[C@H](CC(C)C)C(=O)N[C@H](Cc1c[nH]c2ccccc12)C(=O)N[C@H](C)C(=O)O)[C@H](C)O)[C@H](C)O (89Zr complex, metal not drawn) [DFO*-Lys-Var3] (Ac-[dA][dK](X1)[dD][dD][dQ][dN][dP][dW][dR][dA][dY][dL][dD][dL][dL][dF][dP][dT][dD][dT][dL][dL][dL][dD][dL][dL][dW][dA]-OH; C-terminus assumed)
λmax of tryptophan fluorescence, state I ([3]; with Zr, excitation 295 nm): 352.0 nm
λmax of tryptophan fluorescence, state III ([3]; with Zr): 341.4 nm
λmax of tryptophan fluorescence, state II ([3]; with Zr): 348.2 nm
λmax of tryptophan fluorescence, state I ([3]; without Zr): 351.9 nm
λmax of tryptophan fluorescence, state III ([3]; without Zr): 341.4 nm
λmax of tryptophan fluorescence, state II ([3]; without Zr): 349.3 nm
cooperativity (n), Fluor. [4, 5]: 0.79 and 0.8
midpoint of transition (pK), Fluor. [4, 5]: 5.87
cooperativity (n), CD ([4]; ellipticity at 222 nm (coil-helix transition)): 1.46
midpoint of transition (pK), CD ([4]; ellipticity at 222 nm): 5.47

N=C(N)NC(=O)c1nc(Cl)c(N)nc1N [amiloride]
effect on kidney uptake [2]: not significant; also recorded: none of these drugs led to a significant reduction of kidney uptake
